Data from article PMC11039998 (Nucleic Acids Research, 2024).
Where no end group is shown, it is not given here.

Molecular target: Methyl binding domain (MBD) of MeCP2, wild-type (UniProt P51608 90-162)
Assay: ITC

Methyl binding domain (MBD) of MeCP2, wild-type, sequence (P51608 90-162): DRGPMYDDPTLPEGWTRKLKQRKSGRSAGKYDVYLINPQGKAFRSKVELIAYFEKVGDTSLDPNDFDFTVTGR

| Kd | Binder |
| --- | --- |
| 12 µM | TKAARK(Me3)SAPAT [H3-derived peptide of the K27 region, trimethylated at K27] |
| 3.4 µM | Ac-TKAARKSAPAT-NH2 [H3-derived peptide of the K27 region, wild-type] |
